Assay results: doi:10.1101/2025.03.24.644895

Biological target: Avi-tagged human eIF4A1 full length (human) (UniProt P60842)
Experiment: SPR

Sequence of Avi-tagged human eIF4A1 full length (human) (P60842 whole entry): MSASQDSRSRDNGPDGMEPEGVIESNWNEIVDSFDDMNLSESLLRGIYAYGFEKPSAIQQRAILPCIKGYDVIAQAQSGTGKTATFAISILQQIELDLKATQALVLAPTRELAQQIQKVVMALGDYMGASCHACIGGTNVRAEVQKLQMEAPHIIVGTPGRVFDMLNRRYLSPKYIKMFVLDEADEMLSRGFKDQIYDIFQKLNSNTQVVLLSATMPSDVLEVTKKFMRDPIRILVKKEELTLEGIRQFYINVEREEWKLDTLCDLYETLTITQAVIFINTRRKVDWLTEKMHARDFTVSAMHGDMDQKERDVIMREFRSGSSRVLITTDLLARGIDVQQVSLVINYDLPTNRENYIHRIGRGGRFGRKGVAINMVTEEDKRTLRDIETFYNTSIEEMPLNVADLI

“eIF4G-MIF (middle domain of eIF4G, residues 712-1011) (domain or fragment)” was tested, and the fold increase in binding affinity with hippuristanol against no compound was 5 fold.
